Measured values reported in patent US20190031783A1 (AbbVie / Abbott, published 2019).

Key:
[1] = biological target: T1, full-length human DLL4 on HEK293G cells (human, UniProt Q9NR61 27-685); experiment: cell-based or functional assay
[2] = biological target: T1, full-length human DLL4 on HEK293G cells; experiment: flow cytometry (FACS) on HEK293G cells overexpressing full-length DLL4
Procedure: Stable HEK293G cell lines overexpressing full-length DLL4 were harvested from tissue culture flasks, washed four times and resuspended in phosphate buffered saline (PBS) containing 1% bovine serum albumin and 1 mM CaCl₂ (FACS buffer). 1.5×10⁵ cells were incubated with DVD binding proteins at various concentrations in FACS buffer for 60 minutes on ice. […] Following an incubation on ice (4° C., 60 minutes), cells were washed three times and resuspended in FACS buffer. Fluorescence was measured using a Becton Dickinson FACSCalibur-HTS (Becton Dickinson, San Jose, Calif.). Data was analyzed using Graphpad Prism software and EC₅₀ values were reported as the concentration of antibody to achieve 50% of maximal antibodies binding to DLL4 expressing cells.

[3] = biological target: T2, purified recombinant human DLL4 extracellular domain (ECD) (human, UniProt Q9NR61 27-529); experiment: Notch competition ELISA: inhibition of biotin DLL4 ECD binding to coated human Notch-1
T2 construct: extracellular domain; also called human DLL4529; huDLL4
Procedure: Plates were then washed 3× with wash buffer (PBS, 0.05% Tween-20) and blocked with 200 μl/well blocking buffer (D-PBS, 1% BSA, 1 mM CaCl₂, 0.05% Tween-20) for 1 hour at 25° C. […] Assay plates were washed after blocking, and incubated with DLL4/antibody mixtures (100 μl/well, 1 hour at 25° C. with shaking). Plates were washed again and 100 μl/well of streptavidin conjugated with HRP (Fitzgerald #65R-S104PHRPx, diluted 1:5,000 in blocking buffer) was added for 1 hour at 25° C. with shaking. After a final wash, plates were developed using 100 μl/well substrate (TMB Sigma #T8665), and the reaction was stopped using 100 μl/well 1N HCl, and the absorbance was read at 450 nm. Data was analyzed using Graphpad Prism software and IC₅₀ values were reported as the concentration of antibody required to achieve 50% reduction of DLL4 binding to Notch1.

[4] = biological target: T2, purified recombinant human DLL4 …; experiment: SPR (Biacore), DVD captured via anti-human Fc, DLL4 ECD injected, 25 C
Procedure: (§1) For DLL4 binding kinetic measurements the assay buffer was HBS-EPB: 10 mM Hepes, pH7.5, 150 mM NaCl, 3 mM EDTA, 0.005% Tween 20, 0.1 mg/ml BSA (Sigma A7906). For VEGF binding kinetic measurements the assay buffer was HBS-EP+(3N01B): 10 mM Hepes, pH7.5, 300 mM NaCl, 3 mM EDTA, 0.05% Tween 20, 0.1 mg/ml BSA (Sigma A7906). For example, approximately 9000 RU of goat anti-human Fc specific polyclonal antibody (Thermo Fisher Scientific Inc., Rockford, Ill.) diluted in 10 mM sodium acetate (pH 4.5) is directly immobilized across a CM5 research grade biosensor chip using a standard amine coupling kit according to manufacturer's instructions and procedures at 25 ug/ml. Unreacted moieties on the biosensor surface are blocked with ethanolamine. For kinetic analysis, rate equations derived from the 1:1 Langmuir binding model are fitted simultaneously to multiple antigen injections (using global fit analysis) with the use of Scrubber 2 (BioLogic Software), Biacore Biaevaluation 4.0.1 software or Biacore T100 Evaluation software. Purified antibodies are diluted in running buffer for capture across goat anti-human Fc reaction surfaces. Antibodies to be captured as a ligand (1 ug/ml) are injected over reaction matrices at a flow rate of 10 ul/min. During the assay, all measurements are referenced against the capture surface alone (i.e. with no captured antibody). […] The equilibrium dissociation constant KD (M) of the reaction between antibodies and the target antigen is then calculated from the kinetic rate constants by the following formula: KD=Koff/Kₒₙ. Binding is recorded as a function of time and kinetic rate constants are calculated.

[5] = biological target: human DLL4, full-length, expressed on HEK293G cells (human, UniProt Q9NR61 27-685); experiment: cell-based or functional assay
[6] = biological target: T2, purified recombinant human DLL4 …; experiment: SPR (Biacore), antibody captured via anti-human Fc, DLL4 ECD injected, 25 C
Procedure: as §1

Binder	Notch Activation IC50 [1]	EC50 [2]	IC50 [3]	Kd [4]	also measured
h1A11.1-LL-Av (bispecific antibody, human IgG1, DVD-Ig; also called h1A11.1-LL-Av DVD) VH: EVQLVESGGGLVQPGGSLRLSCAASGFTFSNFPMAWVRQAPGKGLEWVATISSSDGTTYYRDSVKGRFTISRDNAKNSLYLQMNSLRAEDTAVYYCARGYYNSPFAYWGQGTLVTVSSASTKGPSVFPLAPEVQLVESGGGLVQPGGSLRLSCAASGYTFTNYGMNWVRQAPGKGLEWVGWINTYTGEPTYAADFKRRFTFSLDTSKSTAYLQMNSLRAEDTAVYYCAKYPHYYGSSHWYFDVWGQGTLVTVSS VL: DIQMTQSPSSLSASVGDRVTITCRASEDIYSNLAWYQQKPGKAPKLLIYDTNNLADGVPSRFSGSGSGTDFTLTISSLQPEDFATYYCQQYNNYPPTFGQGTKLEIKRTVAAPSVFIFPPDIQMTQSPSSLSASVGDRVTITCSASQDISNYLNWYQQKPGKAPKVLIYFTSSLHSGVPSRFSGSGSGTDFTLTISSLQPEDFATYYCQQYSTVPWTFGQGTKVEIKR	4.56 nM	5.04 nM	0.79 nM		
h1A11.1-LS-Av (bispecific antibody, human IgG1, DVD-Ig; also called h1A11.1-LS-Av DVD) VH: EVQLVESGGGLVQPGGSLRLSCAASGFTFSNFPMAWVRQAPGKGLEWVATISSSDGTTYYRDSVKGRFTISRDNAKNSLYLQMNSLRAEDTAVYYCARGYYNSPFAYWGQGTLVTVSSASTKGPSVFPLAPEVQLVESGGGLVQPGGSLRLSCAASGYTFTNYGMNWVRQAPGKGLEWVGWINTYTGEPTYAADFKRRFTFSLDTSKSTAYLQMNSLRAEDTAVYYCAKYPHYYGSSHWYFDVWGQGTLVTVSS VL: DIQMTQSPSSLSASVGDRVTITCRASEDIYSNLAWYQQKPGKAPKLLIYDTNNLADGVPSRFSGSGSGTDFTLTISSLQPEDFATYYCQQYNNYPPTFGQGTKLEIKRTVAAPDIQMTQSPSSLSASVGDRVTITCSASQDISNYLNWYQQKPGKAPKVLIYFTSSLHSGVPSRFSGSGSGTDFTLTISSLQPEDFATYYCQQYSTVPWTFGQGTKVEIKR	4.59 nM	5 nM	0.76 nM	11 nM	
h1A11.1-SL-Av Fab (Fab) chain 1: EVQLVESGGGLVQPGGSLRLSCAASGFTFSNFPMAWVRQAPGKGLEWVATISSSDGTTYYRDSVKGRFTISRDNAKNSLYLQMNSLRAEDTAVYYCARGYYNSPFAYWGQGTLVTVSSASTKGPEVQLVESGGGLVQPGGSLRLSCAASGYTFTNYGMNWVRQAPGKGLEWVGWINTYTGEPTYAADFKRRFTFSLDTSKSTAYLQMNSLRAEDTAVYYCAKYPHYYGSSHWYFDVWGQGTLVTVSS chain 2: not shown					IC50 (nM), DLL4 neutralization cellular assay, 0 nM VEGF [5]: > 40 nM; IC50 (nM), DLL4 neutralization cellular assay, 150 nM BSG2 present [5]: > 40 nM; IC50 (nM), DLL4 neutralization cellular assay, 150 nM VEGF present [5]: 4.56 nM
h1A11.1-SS-Av (bispecific antibody, human IgG1, DVD-Ig; also called h1A11.1-SS-Av DVD) VH: EVQLVESGGGLVQPGGSLRLSCAASGFTFSNFPMAWVRQAPGKGLEWVATISSSDGTTYYRDSVKGRFTISRDNAKNSLYLQMNSLRAEDTAVYYCARGYYNSPFAYWGQGTLVTVSSASTKGPEVQLVESGGGLVQPGGSLRLSCAASGYTFTNYGMNWVRQAPGKGLEWVGWINTYTGEPTYAADFKRRFTFSLDTSKSTAYLQMNSLRAEDTAVYYCAKYPHYYGSSHWYFDVWGQGTLVTVSS VL: DIQMTQSPSSLSASVGDRVTITCRASEDIYSNLAWYQQKPGKAPKLLIYDTNNLADGVPSRFSGSGSGTDFTLTISSLQPEDFATYYCQQYNNYPPTFGQGTKLEIKRTVAAPDIQMTQSPSSLSASVGDRVTITCSASQDISNYLNWYQQKPGKAPKVLIYFTSSLHSGVPSRFSGSGSGTDFTLTISSLQPEDFATYYCQQYSTVPWTFGQGTKVEIKR	7.47 nM	3.75 nM		12 nM	
humanized anti-DLL4 mAb (h1A11.1) (antibody, V domains shown, Parental humanized anti-DLL4 mAb) VH: EVQLVESGGGLVQPGGSLRLSCAASGFTFSNFPMAWVRQAPGKGLEWVATISSSDGTTYYRDSVKGRFTISRDNAKNSLYLQMNSLRAEDTAVYYCARGYYNSPFAYWGQGTLVTVSS VL: DIQMTQSPSSLSASVGDRVTITCRASEDIYSNLAWYQQKPGKAPKLLIYDTNNLADGVPSRFSGSGSGTDFTLTISSLQPEDFATYYCQQYNNYPPTFGQGTKLEIKR					Kd [6]: 12 nM; koff [6]: 0.00193 s⁻¹; kon [6]: 160000 M⁻¹ s⁻¹
